Source: the supplement of paper PMC7877785
± gives the uncertainty stated by the source.

Assay: self-splicing fitness, log relative to wild type (ln ratio); higher = more splicing; Tetrahymena group I intron in knt gene, E. coli kanamycin selection, DiMSum; sequences stand for … in CUCUCU…GGAGGGAAAAGUUAUCAGGCAUGCACCUGGUAGCUAGUCUUUAAACCAAUAGAUUGCAUCGGUUUAAAAGGCAAGACCGUCAAAUUGCGGGAAAGGGGUCAACAGCCGUUCAGUACCAAGUCUCAGGGGAAACUUUGAGAUGGCCUUGCAAAGGGUAUGGUAAUAAGCUGACGGACAUGGUCCUAACCACGCAGCCAAGUCCUAAGUCAACAGAUCUUCUGUUGAUAUGGAUGCAGUUCACAGACUAAAUGUCGGUCGGGGAAGAUGUAUUCUUCUCAUAAGAUAUAGUCGGACCUCUCCUUAAUGGGAGCUAGCGGAUGAAGUGAUGCAACACUGGAGCCGCUGGGAACUAAUUUGUAUGCGAAAGUAUAUUGAUUAGUUUUGGAGUACUCGUGGUCG
In short: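 Library with all eight P1ex-region intron nucleotides randomised, intron inside the knt kanamycin-resistance gene on pET-22b(+), in E. coli BL21(DE3). Cells grew overnight at 37°C or 30°C on LB agar with or without 25 μg/mL kanamycin (plus 100 μg/mL carbenicillin, 50 μM IPTG, 0.2% rhamnose), in six replicate transformations. Pooled colonies were amplicon-sequenced on Illumina HiSeq 2500. DiMSum fitness is the error-weighted combination of wild-type-normalised replicate fold changes, kanamycin versus none.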

| Sequence | self-splicing fitness (ln) (30 °C) | self-splicing fitness (ln) (37 °C) |
| --- | --- | --- |
| AAGGAGCAAUAUUACGUGGG | -2.68 ± 0.18 | -2.68 ± 0.17 |
| CCUCAGCAAUAUUACGAGUU | -2.31 ± 0.1 | -1.11 ± 0.093 |
| AGGCAGCAAUAUUACGCACG | -0.754 ± 0.069 | -0.342 ± 0.11 |
| AAUUAGCAAUAUUACGACCC |  | 0.136 ± 0.36 |
| UUCUAGCAAUAUUACGGAAA |  | -1.4 ± 0.45 |
| UUGUAGCAAUAUUACGGUCU | -2.53 ± 0.21 | -1.53 ± 0.17 |
| GUUCAGCAAUAUUACGGCCG | -2.57 ± 0.24 | -0.72 ± 0.17 |
| GAAGAGCAAUAUUACGGUGC |  | -2.41 ± 0.21 |
| CGCUAGCAAUAUUACGUCGA | -2.02 ± 0.35 | -1.78 ± 0.32 |
| CUUAAGCAAUAUUACGUGGG | -4.03 ± 0.17 | -2.26 ± 0.12 |
| AUGCAGCAAUAUUACGUAGU | -1.46 ± 0.088 | -0.542 ± 0.089 |
| UUGAAGCAAUAUUACGCUAC |  | -1.75 ± 0.37 |
| GACGAGCAAUAUUACGCGUU | -3.74 ± 0.23 | -2.88 ± 0.25 |
| CAGCAGCAAUAUUACGAUCA | -2.71 ± 0.2 | -1.88 ± 0.21 |
| UGCCAGCAAUAUUACGCUUA | -0.602 ± 0.063 | 0.791 ± 0.084 |
| UAUCAGCAAUAUUACGUGAU | -3.01 ± 0.12 | -1.51 ± 0.11 |
| ACAUAGCAAUAUUACGCUGA | -1.47 ± 0.093 | -0.74 ± 0.12 |
| CUGAAGCAAUAUUACGAUAG | -0.213 ± 0.082 | 0.563 ± 0.11 |
| GAUUAGCAAUAUUACGGCAC | -0.128 ± 0.13 | -0.42 ± 0.12 |
| CCGCAGCAAUAUUACGUAGC |  | -0.697 ± 0.22 |
| CAGGAGCAAUAUUACGUAGG | -0.929 ± 0.1 | 0.172 ± 0.11 |
| AACAAGCAAUAUUACGAAAC | -3.9 ± 0.23 | -2.33 ± 0.27 |
| AUCAAGCAAUAUUACGUAUG | -4.19 ± 0.24 | -1.56 ± 0.14 |
| UAGCAGCAAUAUUACGCCUG | -1.79 ± 0.11 | -0.602 ± 0.13 |
| CUUUAGCAAUAUUACGAUAU | -3.93 ± 0.35 | -3.25 ± 0.38 |
| AUAAAGCAAUAUUACGCGUC | -4.6 ± 0.46 | -2.73 ± 0.29 |

| Sequence | self-splicing fitness (ln) (30 °C) | self-splicing fitness (ln) (37 °C) |
| --- | --- | --- |
| GGUGAGCAAUAUUACGGCGU | -1.29 ± 0.14 | -0.494 ± 0.17 |
| GAAUAGCAAUAUUACGUACG | -1.38 ± 0.12 | -1.45 ± 0.14 |
| UUAAAGCAAUAUUACGAAAA | -0.945 ± 0.057 | -0.761 ± 0.08 |
| CGUUAGCAAUAUUACGGCGA | -1.6 ± 0.11 | -1.61 ± 0.11 |
| UAGCAGCAAUAUUACGUAAG | -1.91 ± 0.078 | -0.435 ± 0.091 |
| UUCCAGCAAUAUUACGCCCC | -2.4 ± 0.25 |  |
| ACGUAGCAAUAUUACGACGU | -2.97 ± 0.15 | -2.31 ± 0.19 |
| AAAGAGCAAUAUUACGUUCU | -2.77 ± 0.13 | -1.72 ± 0.13 |
| GCUCAGCAAUAUUACGGUAU | -1.14 ± 0.061 | 0.0133 ± 0.075 |
| ACGAAGCAAUAUUACGACUC | -1.12 ± 0.072 | -0.0297 ± 0.088 |
| GUCGAGCAAUAUUACGCUAA |  | -1.5 ± 0.2 |
| GCGGAGCAAUAUUACGGGGC | -2.48 ± 0.48 | -1.65 ± 0.35 |
| UCAAAGCAAUAUUACGCUGU | -3.7 ± 0.21 | -2.82 ± 0.18 |
| GUAUAGCAAUAUUACGGAGA |  | -2.57 ± 0.45 |
| ACUCAGCAAUAUUACGGAGC | -3.55 ± 0.21 | -1.76 ± 0.17 |
| AAUUAGCAAUAUUACGGUGU | -2.48 ± 0.091 | -1.32 ± 0.098 |
| GCACAGCAAUAUUACGAGAC | -2.51 ± 0.17 | -2.06 ± 0.18 |
| ACGGAGCAAUAUUACGUGUA | -3.72 ± 0.29 | -3.03 ± 0.23 |
| CGAUAGCAAUAUUACGUGAG | -0.997 ± 0.07 | -0.771 ± 0.091 |
| AUUGAGCAAUAUUACGCGUA |  | -1.87 ± 0.31 |
| UCCCAGCAAUAUUACGGAAC | -4.36 ± 0.27 | -2.65 ± 0.18 |
| UUCUAGCAAUAUUACGGGAA | -2.38 ± 0.19 | -2.8 ± 0.28 |
| GCGUAGCAAUAUUACGCAUA | -3.49 ± 0.2 | -2.17 ± 0.21 |
| ACUUAGCAAUAUUACGUACA | -1.84 ± 0.17 | -0.763 ± 0.15 |
| UUGUAGCAAUAUUACGUCUG | -0.639 ± 0.067 | 0.19 ± 0.086 |
| UCGAAGCAAUAUUACGGGCG | 0.0324 ± 0.093 | -0.219 ± 0.1 |

| Sequence | self-splicing fitness (ln) (30 °C) | self-splicing fitness (ln) (37 °C) |
| --- | --- | --- |
| CGCAAGCAAUAUUACGAAAU | -3.48 ± 0.21 | -1.86 ± 0.18 |
| CUAAAGCAAUAUUACGUAAG | -0.149 ± 0.07 | -0.575 ± 0.085 |
| CAUUAGCAAUAUUACGACGC | -1.73 ± 0.39 |  |
| GAUAAGCAAUAUUACGCGUA | -0.996 ± 0.14 | -0.968 ± 0.16 |
| GCGCAGCAAUAUUACGCCGC | -2.28 ± 0.35 | -1.44 ± 0.49 |
| UACGAGCAAUAUUACGAGCA | -2.48 ± 0.16 | -0.109 ± 0.12 |
| GGGAAGCAAUAUUACGGGAU |  | -0.0224 ± 0.27 |
| UAGCAGCAAUAUUACGAUUA | -0.00343 ± 0.049 | -0.0327 ± 0.066 |
| CCAAAGCAAUAUUACGGCCC | -3.57 ± 0.43 |  |
| CACCAGCAAUAUUACGGUCA | -0.569 ± 0.05 | 0.174 ± 0.062 |
| UUCGAGCAAUAUUACGUGAA | -1.55 ± 0.27 | 1.01 ± 0.28 |
| CCUAAGCAAUAUUACGUGUG | -1.83 ± 0.057 | -1.49 ± 0.075 |
| CUGGAGCAAUAUUACGGUCA | -2.54 ± 0.47 |  |
| AAUGAGCAAUAUUACGCGCU |  | -1.72 ± 0.37 |
| GACUAGCAAUAUUACGGCAA | -0.738 ± 0.08 | -0.302 ± 0.09 |
| CACUAGCAAUAUUACGAGAA | -2.74 ± 0.43 | -1.67 ± 0.28 |
| GUAUAGCAAUAUUACGAGAC | -1.38 ± 0.4 | -1.24 ± 0.47 |
| UCUGAGCAAUAUUACGGCAC | -4.07 ± 0.47 | -1.06 ± 0.28 |
| AUCUAGCAAUAUUACGCUAU | -3.15 ± 0.21 | -1.49 ± 0.14 |
| UCUAAGCAAUAUUACGGAUA | -2.97 ± 0.22 | -1.77 ± 0.19 |
| ACUAAGCAAUAUUACGCGUA | -1.2 ± 0.11 | -0.501 ± 0.13 |
| GUAGAGCAAUAUUACGGGGU | -3.18 ± 0.2 | -2.07 ± 0.15 |
| CGGCAGCAAUAUUACGCGGU | -4.26 ± 0.25 | -3.33 ± 0.19 |
| UCAGAGCAAUAUUACGUGAA | -2.01 ± 0.15 | -1.2 ± 0.21 |
| UAGCAGCAAUAUUACGGUCG | 0.0447 ± 0.066 | 0.482 ± 0.094 |
| UAACAGCAAUAUUACGGCGG | -0.643 ± 0.053 | -0.105 ± 0.068 |

| Sequence | self-splicing fitness (ln) (30 °C) | self-splicing fitness (ln) (37 °C) |
| --- | --- | --- |
| CAGCAGCAAUAUUACGCUCU | -3.08 ± 0.16 | -2.08 ± 0.17 |
| AACUAGCAAUAUUACGGACG | -1.21 ± 0.06 | -0.904 ± 0.072 |
| GGUUAGCAAUAUUACGAGAU |  | -1.66 ± 0.33 |
| GUGUAGCAAUAUUACGAGGA | -2.9 ± 0.44 |  |
| AACUAGCAAUAUUACGAGGG | -2.13 ± 0.12 | -2.24 ± 0.19 |
| GAGGAGCAAUAUUACGAGAG | -2.77 ± 0.32 | -2.76 ± 0.41 |
| AGUAAGCAAUAUUACGAUCC | -0.71 ± 0.097 | 0.236 ± 0.15 |
| CGAGAGCAAUAUUACGCCUG | -3.12 ± 0.25 | -1.73 ± 0.28 |
| CAUCAGCAAUAUUACGCACA | -0.992 ± 0.098 | -1.21 ± 0.11 |
| CAGUAGCAAUAUUACGCGCU | -1.56 ± 0.26 | -1.28 ± 0.27 |
| AAUCAGCAAUAUUACGCACU | -0.299 ± 0.077 | 0.326 ± 0.093 |
| CAAUAGCAAUAUUACGGGCA | -2.46 ± 0.28 | -2.89 ± 0.25 |
| ACAGAGCAAUAUUACGCAAC |  | -2.1 ± 0.41 |
| AGUAAGCAAUAUUACGUUCU | -0.729 ± 0.085 | -1.21 ± 0.11 |
| GCUUAGCAAUAUUACGACAC | -0.819 ± 0.21 | -0.721 ± 0.16 |
| UAACAGCAAUAUUACGACAC | -3.35 ± 0.16 | -0.676 ± 0.11 |
| CUGGAGCAAUAUUACGGUAU | -4.78 ± 0.41 | -2.49 ± 0.31 |
| AUUUAGCAAUAUUACGCUGG | -1.97 ± 0.27 | -1.4 ± 0.33 |
| GCUGAGCAAUAUUACGGGUA | -1.3 ± 0.091 | -1.15 ± 0.1 |
| CUCCAGCAAUAUUACGAAGG | -3.5 ± 0.32 | -2.13 ± 0.23 |
| GAGCAGCAAUAUUACGGGAC | -2.82 ± 0.19 | -2.74 ± 0.15 |
| UAUUAGCAAUAUUACGAGUC | -3.35 ± 0.48 |  |
| AAAAAGCAAUAUUACGAUGC | -1.66 ± 0.091 | -0.868 ± 0.11 |
